The values that follow are results of earlier work, collected in PMC4826273.

The target of the data set is Dll-1 (Homo sapiens) (UniProt O00548). In words: surface plasmon resonance. In general terms: Surface plasmon resonance follows binding to a sensor surface in real time, without labels.
Chain of UniProt O00548 (O00548 18-545): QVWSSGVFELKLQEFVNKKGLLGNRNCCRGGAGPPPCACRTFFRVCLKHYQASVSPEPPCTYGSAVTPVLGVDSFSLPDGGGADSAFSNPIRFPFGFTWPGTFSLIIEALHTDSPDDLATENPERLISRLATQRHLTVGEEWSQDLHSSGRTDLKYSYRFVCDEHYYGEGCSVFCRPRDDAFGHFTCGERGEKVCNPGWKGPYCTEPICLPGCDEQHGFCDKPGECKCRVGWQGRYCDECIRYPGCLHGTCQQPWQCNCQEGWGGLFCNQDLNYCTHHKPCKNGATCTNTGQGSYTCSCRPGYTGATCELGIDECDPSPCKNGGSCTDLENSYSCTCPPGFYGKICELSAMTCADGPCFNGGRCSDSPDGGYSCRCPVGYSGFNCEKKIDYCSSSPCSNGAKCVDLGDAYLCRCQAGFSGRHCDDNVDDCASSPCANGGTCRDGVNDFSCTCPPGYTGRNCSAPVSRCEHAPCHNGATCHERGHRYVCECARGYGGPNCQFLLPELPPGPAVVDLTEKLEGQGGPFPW

The Kd is the constant that tells how readily two partners part at equilibrium. As for Notch1 (from UniProt P46531), the Kd is 130 µM.
